Assay [1] addresses Duck egg lysozyme (DEL). The assay can be described thus: bio-layer interferometry. The following applies: parent: est. 2.5e7 M-1; read off a plot. Background: In BLI a coated tip is dipped into the sample, and binding shifts an interference pattern.
Assay [2] deals with VH substitutions L4F, S31N, Y33H, and S56N. Kind of assay: BLI; BLItz; biotinylated Fab loaded on streptavidin biosensors, lysozyme proteins in solution at a range of molar concentrations; PBS (sensors rehydrated in PBS with 0.1% BSA); global fit, 1:1 Fab-lysozyme interaction; affinities printed as 1/KD.
Assay [3] concerns the target T1, Duck egg lysozyme (DEL), D65N + N103D double mutant of the DEL-II isoform (Anas platyrhynchos, DEL-II double mutant, strain).
T1 construct: duck egg lysozyme, DEL-II isoform, D65N + N103D double mutant; differs from HEL3X at 25 amino acids; source: Pichia pastoris, secreted, purified from culture supernatant (ion exchange)
T1 chain: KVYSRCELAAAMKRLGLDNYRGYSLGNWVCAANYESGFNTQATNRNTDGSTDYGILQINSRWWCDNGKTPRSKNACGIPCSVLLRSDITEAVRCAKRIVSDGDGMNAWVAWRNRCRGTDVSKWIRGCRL
Kind of assay: BLI; BLItz (ForteBio); biotinylated Hy10 Fab variant immobilised on streptavidin biosensors (rehydrated in PBS with 0.1% wt/vol BSA); soluble monomeric lysozyme antigen as analyte at a range of concentrations; global fit, 1:1 Fab-lysozyme interaction. The following applies: both partners purified.

Assay [4] concerns the target T2, Duck egg lysozyme (DEL) (Anas platyrhynchos, DEL-II double mutant, strain).
T2 construct: duck egg lysozyme, DEL-II isoform, D65N + N103D double mutant; source: P. pastoris, secreted, purified (ion exchange)
T2 chain: T1 chain
The assay can be described thus: BLI; BLItz; biotinylated Fab loaded on streptavidin biosensors, lysozyme proteins in solution at a range of molar concentrations; PBS (sensors rehydrated in PBS with 0.1% BSA); global fit, 1:1 Fab-lysozyme interaction; affinities printed as 1/KD. The following applies: both partners purified.

From paper PMC7486785 (Proceedings of the National Academy of Sciences of the …, 2020) come the findings set out here.

Residue numbers refer to the chain shown, from its start. Numbers in names are those of the source. Where only a bound is given, the exact number is not on record here.

In general, Kd refers to the free concentration of one partner at which half of the binding sites on the other are occupied at equilibrium, for simple one-to-one binding.

In the case of Hy10 Fab S52N, the Ka with Duck egg lysozyme (DEL) [1] was under 100000 M⁻¹.

“HEL^3X self-lysozyme (from UniProt P00698 19-147) (natural protein)” returned a fold decrease in affinity against Hy10 in assay [2] of 3 to 39 fold.

B1: HyHEL10 (Hy10) Fab, WT founder (Fab, V domains shown)
VH: DVQLQESGPSLVKPSQTLSLTCSVTGDSITSDYWSWIRKFPGNRLEYMGYVSYSGSTYYNPSLKSRISITRDTSKNQYYLDLNSVTTEDTATYYCANWDGDYWGQGTLVTVSA
VL: DIVLTQSPATLSVTPGNSVSLSCRASQSIGNNLHWYQQKSHESPRLLIKYASQSISGIPSRFSGSGSGTDFTLSINSVETEDFGMYFCQQSNSWPYTFGGGTKLEIK
notes: heavy chain of Hy10 Fab; light chain of Hy10 Fab; also called Hy10WT; source: Expi293, transient (pCEP4), purified (Talon resin, gel filtration)
On to B1, for which, in assay [3], the Ka stood at 2.49e+07 M⁻¹ and the Kd worked out at 40.1 nM.

B2: Hy10 Fab S56R (Fab, V domains shown)
VH: B1 VH with S56R
VL: B1 VL
notes: as the heavy chain of Dm5 with the stated changes; as the light chain of Dm5; also called Hy10-S56R; source: Expi293, transient (pCEP4), purified (Talon resin, gel filtration)
On to B2, for which, in assay [3], the Ka was 4.41e+06 M⁻¹ and the Kd worked out at 227 nM.

B3: Hy10 Fab (Fab, V domains shown)
VH: B1 VH
VL: B1 VL
notes: Hy10 Fab heavy chain; Hy10 Fab light chain; Biotinylated only for BLI, not for the crystals; also called HyHEL10; WT founder antibody; source: Expi293, transient, purified (Talon, gel filtration)
As to B3, in the assay with Duck egg lysozyme (DEL) [4], the Ka came to 2.5e+07 M⁻¹.

B4: Hy10 Fab Y58F (Fab, V domains shown)
VH: B1 VH with Y58F
VL: B1 VL
notes: as the heavy chain of Dm5 with the stated changes; as the light chain of Dm5; source: Expi293, transient (pCEP4), purified (Talon resin, gel filtration)
Consider B4, for which, in assay [3], the Ka came to 9.35e+07 M⁻¹ and the Kd was determined as 10.7 nM.

B5: Hy10 Fab I29F/S52T/Y53F/Y58F (Fab, V domains shown)
VH: B1 VH with I29F, S52T, Y53F, Y58F
VL: B1 VL
notes: as for B4
Turning to B5, in assay [3], the Ka came to 7.51e+09 M⁻¹ and the Kd was 0.133 nM.

B6: Hy10 Fab Y33H (Fab, V domains shown)
VH: B1 VH with Y33H
VL: B1 VL
notes: as the heavy chain of Dm5 with the stated changes; as the light chain of Dm5; also called Hy10-Y33H; source: Expi293, transient (pCEP4), purified (Talon resin, gel filtration)
As to B6, in assay [3], the Ka was 1.68e+06 M⁻¹ and the Kd came to 594 nM.

B7: Hy10 Fab S52T/Y58F (Fab, V domains shown)
VH: B1 VH with S52T, Y58F
VL: B1 VL
notes: as for B4
Consider B7, for which, in assay [3], the Ka stood at 3.8e+08 M⁻¹ and the Kd was found to be 2.62 nM.

B8: Hy10 Fab I29F/S52T/Y53F (Fab, V domains shown)
VH: B1 VH with I29F, S52T, Y53F
VL: B1 VL
notes: as for B4
As to B8, in assay [3], the Ka came out at 6.1e+09 M⁻¹ and the Kd was 0.164 nM.

B9: Hy10 Fab L4F/Y33H (Fab, V domains shown)
VH: B1 VH with L4F, Y33H
VL: B1 VL
notes: as for B4
In the case of B9, in assay [3], the Ka was determined as 5.8e+06 M⁻¹ and the Kd amounted to 172 nM.

B10: Hy10 Fab I29F/S52T/Y58F (Fab, V domains shown)
VH: B1 VH with I29F, S52T, Y58F
VL: B1 VL
notes: as for B4
Take B10: in assay [3], the Ka stood at 5.92e+08 M⁻¹ and the Kd stood at 1.69 nM.

B11: Hy10 Fab I29F/S52T (Fab, V domains shown)
VH: B1 VH with I29F, S52T
VL: B1 VL
notes: as for B4
For the molecule B11, in assay [3], the Ka was 1.73e+08 M⁻¹ and the dissociation constant Kd worked out at 5.79 nM.

B12: Hy10 Fab S52T (Fab, V domains shown)
VH: B1 VH with S52T
VL: B1 VL
notes: as for B4
With B12, in assay [3], the Ka came to 2.98e+07 M⁻¹ and the Kd was found to be 33.5 nM.

B13: Hy10 Fab I29F (Fab, V domains shown)
VH: B1 VH with I29F
VL: B1 VL
notes: as for B4
For B13, in assay [3], the Ka was found to be 6.37e+07 M⁻¹ and the Kd was determined as 15.7 nM.

B14: Hy10 Fab S31N (Fab, V domains shown)
VH: B1 VH with S31N
VL: B1 VL
notes: as for B4
Turning to B14, in assay [3], the Ka was determined as 9.6e+06 M⁻¹ and the dissociation constant (Kd) worked out at 104 nM.

B15: Hy10 Fab Y53F (Fab, V domains shown)
VH: B1 VH with Y53F
VL: B1 VL
notes: as for B4
As to B15, in assay [3], the Ka is 1.2e+08 M⁻¹ and the Kd was 8.35 nM.

B16: Hy10 Fab S52T/Y53F/Y58F (Fab, V domains shown)
VH: B1 VH with S52T, Y53F, Y58F
VL: B1 VL
notes: as for B4
As for B16, in assay [3], the Ka was 1.99e+09 M⁻¹ and the Kd stood at 0.502 nM.

B17: Hy10 Fab L4F (Fab, V domains shown)
VH: B1 VH with L4F
VL: B1 VL
notes: as for B4
In the case of B17, in assay [3], the Ka came out at 3.25e+06 M⁻¹ and the dissociation constant (Kd) was found to be 308 nM.

B18: Hy10 Fab Y53F/S56R (Fab, V domains shown)
VH: B1 VH with Y53F, S56R
VL: B1 VL
notes: as for B4
B18: in assay [3], the Ka amounted to 3.73e+07 M⁻¹ and the dissociation constant Kd stood at 26.8 nM.

B19: Hy10 Fab S52T/Y53F (Fab, V domains shown)
VH: B1 VH with S52T, Y53F
VL: B1 VL
notes: as for B4
Take B19: in assay [3], the Ka is 2.81e+08 M⁻¹ and the Kd was determined as 3.56 nM.

B20: Hy10 Fab Y53F/Y58F (Fab, V domains shown)
VH: B1 VH with Y53F, Y58F
VL: B1 VL
notes: as for B4
Consider B20, for which, in assay [3], the Ka was found to be 1.13e+08 M⁻¹ and the dissociation constant (Kd) turned out to be 8.85 nM.
